In this experiment the target is GD03-S1(318-510)-C9 protein (SARS-CoV GD03 (GD03T0013), UniProt P59594 318-510). Description: ELISA, serial dilutions of coated S1-(318-510)-C9 protein, 0.5 ug/ml IgG1.

B1: 11A IgG1 (antibody, V domains shown)
VH: EVQLVQSGAEVKKPGESLKISCKGSGYSFTSYWIGWVRQMPGKGLEWMGIINPDNSDTRFSPSLQGQVTISVDKSINTVYLQWGSLKASDTAMYYCARQGDYSGPSINYWGQGTLVTVSS
VL: QSVLTQPASVSGSPGQSITISCTGTSSDVGGYNYVSWYQQHPGKAPKLMIYDVSKRPSGIPERFSGSNSGNTATLTISGTQAMDEADYYCQAWDSNTYVFGTGTKVTVLV
Regarding B1, the binding result is given as “binds”.

Values taken from patent WO2007044695A2 (dated 2007).
